One experiment has as its target T1, human integrin avb8 (human).
T1 chain 1: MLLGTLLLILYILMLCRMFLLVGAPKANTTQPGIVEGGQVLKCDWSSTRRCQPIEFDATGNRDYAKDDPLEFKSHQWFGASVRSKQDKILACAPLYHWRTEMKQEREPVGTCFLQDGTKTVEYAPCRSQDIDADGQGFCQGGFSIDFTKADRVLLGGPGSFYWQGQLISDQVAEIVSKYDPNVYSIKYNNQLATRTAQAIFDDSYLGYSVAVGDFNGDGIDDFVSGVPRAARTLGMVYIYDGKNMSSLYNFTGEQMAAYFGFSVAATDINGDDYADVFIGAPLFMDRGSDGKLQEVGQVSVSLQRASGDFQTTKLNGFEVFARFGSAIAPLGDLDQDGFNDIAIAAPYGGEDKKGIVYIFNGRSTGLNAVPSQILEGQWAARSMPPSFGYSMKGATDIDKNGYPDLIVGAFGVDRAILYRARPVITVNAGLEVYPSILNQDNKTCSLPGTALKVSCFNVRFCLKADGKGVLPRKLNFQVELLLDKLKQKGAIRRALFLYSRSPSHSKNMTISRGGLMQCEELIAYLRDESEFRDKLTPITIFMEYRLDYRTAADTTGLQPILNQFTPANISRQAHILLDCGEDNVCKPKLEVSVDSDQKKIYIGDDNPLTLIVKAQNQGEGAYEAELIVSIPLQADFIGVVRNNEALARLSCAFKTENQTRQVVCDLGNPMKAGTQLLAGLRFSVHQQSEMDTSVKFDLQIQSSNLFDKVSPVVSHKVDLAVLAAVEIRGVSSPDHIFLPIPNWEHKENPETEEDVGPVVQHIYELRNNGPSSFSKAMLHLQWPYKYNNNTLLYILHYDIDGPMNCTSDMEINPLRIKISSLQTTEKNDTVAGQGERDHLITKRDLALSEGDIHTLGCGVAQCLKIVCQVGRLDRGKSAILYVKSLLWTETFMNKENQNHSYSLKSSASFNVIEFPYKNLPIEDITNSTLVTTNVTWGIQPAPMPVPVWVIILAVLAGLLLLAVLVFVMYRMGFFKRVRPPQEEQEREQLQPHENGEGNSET
T1 chain 2: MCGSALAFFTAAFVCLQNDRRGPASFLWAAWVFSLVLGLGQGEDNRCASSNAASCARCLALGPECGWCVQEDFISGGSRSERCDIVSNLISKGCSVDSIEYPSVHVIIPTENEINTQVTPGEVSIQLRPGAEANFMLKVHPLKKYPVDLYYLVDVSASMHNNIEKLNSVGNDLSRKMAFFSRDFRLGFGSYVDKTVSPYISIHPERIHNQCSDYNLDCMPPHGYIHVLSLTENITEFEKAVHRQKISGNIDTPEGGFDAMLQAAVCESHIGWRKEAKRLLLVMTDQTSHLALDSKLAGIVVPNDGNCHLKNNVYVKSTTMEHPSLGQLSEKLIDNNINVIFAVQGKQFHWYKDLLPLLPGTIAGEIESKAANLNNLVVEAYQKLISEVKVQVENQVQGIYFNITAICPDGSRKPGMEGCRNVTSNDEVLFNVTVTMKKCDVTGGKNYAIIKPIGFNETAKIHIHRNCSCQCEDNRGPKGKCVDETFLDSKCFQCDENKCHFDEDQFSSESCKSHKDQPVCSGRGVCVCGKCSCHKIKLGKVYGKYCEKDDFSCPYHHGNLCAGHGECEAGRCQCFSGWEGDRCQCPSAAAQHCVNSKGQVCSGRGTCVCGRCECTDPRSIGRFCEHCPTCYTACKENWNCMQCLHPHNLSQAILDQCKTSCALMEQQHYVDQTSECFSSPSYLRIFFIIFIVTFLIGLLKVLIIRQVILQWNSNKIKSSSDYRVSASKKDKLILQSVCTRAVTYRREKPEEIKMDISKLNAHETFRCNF
Kind of experiment: SPR.

For experiment [1], the target named is T2, human integrin avb6 (human, UniProt P06756).
T2 chain 1: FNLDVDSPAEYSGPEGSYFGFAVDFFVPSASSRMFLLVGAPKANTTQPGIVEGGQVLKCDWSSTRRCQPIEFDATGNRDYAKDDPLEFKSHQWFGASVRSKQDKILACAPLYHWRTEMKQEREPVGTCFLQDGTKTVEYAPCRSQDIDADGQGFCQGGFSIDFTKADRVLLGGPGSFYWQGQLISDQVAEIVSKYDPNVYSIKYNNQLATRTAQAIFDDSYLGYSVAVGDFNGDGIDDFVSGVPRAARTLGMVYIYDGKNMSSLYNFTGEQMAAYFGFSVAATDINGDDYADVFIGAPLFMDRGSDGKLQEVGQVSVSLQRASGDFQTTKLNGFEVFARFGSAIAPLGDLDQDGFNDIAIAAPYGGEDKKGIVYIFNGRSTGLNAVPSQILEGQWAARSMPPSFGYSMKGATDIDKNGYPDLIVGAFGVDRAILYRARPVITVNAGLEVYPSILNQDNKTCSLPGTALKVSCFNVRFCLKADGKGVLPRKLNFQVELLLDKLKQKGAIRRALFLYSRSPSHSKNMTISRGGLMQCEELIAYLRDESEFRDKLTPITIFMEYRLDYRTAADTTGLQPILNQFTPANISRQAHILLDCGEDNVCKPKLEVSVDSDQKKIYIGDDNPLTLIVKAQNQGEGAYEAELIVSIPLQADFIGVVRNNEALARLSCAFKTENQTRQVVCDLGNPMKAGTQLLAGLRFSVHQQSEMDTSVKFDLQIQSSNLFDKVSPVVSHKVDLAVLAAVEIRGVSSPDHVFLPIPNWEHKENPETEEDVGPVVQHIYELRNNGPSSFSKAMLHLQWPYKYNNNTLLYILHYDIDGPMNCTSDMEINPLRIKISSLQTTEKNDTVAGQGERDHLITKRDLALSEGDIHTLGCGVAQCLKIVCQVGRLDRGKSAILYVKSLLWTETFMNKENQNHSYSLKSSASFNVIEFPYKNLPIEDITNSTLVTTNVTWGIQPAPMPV
T2 chain 2: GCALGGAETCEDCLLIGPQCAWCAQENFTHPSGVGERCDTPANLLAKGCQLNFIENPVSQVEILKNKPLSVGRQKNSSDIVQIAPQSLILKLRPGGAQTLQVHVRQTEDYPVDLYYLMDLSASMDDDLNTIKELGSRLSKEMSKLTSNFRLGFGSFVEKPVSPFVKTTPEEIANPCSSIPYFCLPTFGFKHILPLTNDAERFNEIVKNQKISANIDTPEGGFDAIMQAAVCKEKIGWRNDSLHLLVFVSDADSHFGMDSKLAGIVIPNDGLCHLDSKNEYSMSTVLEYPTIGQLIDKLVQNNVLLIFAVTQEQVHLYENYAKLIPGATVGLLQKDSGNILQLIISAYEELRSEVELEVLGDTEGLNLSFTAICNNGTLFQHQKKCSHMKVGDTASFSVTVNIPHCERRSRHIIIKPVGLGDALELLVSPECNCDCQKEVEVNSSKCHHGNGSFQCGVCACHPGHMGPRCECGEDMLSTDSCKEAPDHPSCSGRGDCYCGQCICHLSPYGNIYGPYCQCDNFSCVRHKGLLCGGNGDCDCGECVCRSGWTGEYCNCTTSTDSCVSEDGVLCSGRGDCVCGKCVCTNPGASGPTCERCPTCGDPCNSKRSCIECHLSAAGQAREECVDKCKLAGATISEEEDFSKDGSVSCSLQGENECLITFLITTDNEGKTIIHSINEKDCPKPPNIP
Briefly: SPR.

A further experiment deals with T3, human integrin avb3 (human, UniProt P06756).
T3 chain 1: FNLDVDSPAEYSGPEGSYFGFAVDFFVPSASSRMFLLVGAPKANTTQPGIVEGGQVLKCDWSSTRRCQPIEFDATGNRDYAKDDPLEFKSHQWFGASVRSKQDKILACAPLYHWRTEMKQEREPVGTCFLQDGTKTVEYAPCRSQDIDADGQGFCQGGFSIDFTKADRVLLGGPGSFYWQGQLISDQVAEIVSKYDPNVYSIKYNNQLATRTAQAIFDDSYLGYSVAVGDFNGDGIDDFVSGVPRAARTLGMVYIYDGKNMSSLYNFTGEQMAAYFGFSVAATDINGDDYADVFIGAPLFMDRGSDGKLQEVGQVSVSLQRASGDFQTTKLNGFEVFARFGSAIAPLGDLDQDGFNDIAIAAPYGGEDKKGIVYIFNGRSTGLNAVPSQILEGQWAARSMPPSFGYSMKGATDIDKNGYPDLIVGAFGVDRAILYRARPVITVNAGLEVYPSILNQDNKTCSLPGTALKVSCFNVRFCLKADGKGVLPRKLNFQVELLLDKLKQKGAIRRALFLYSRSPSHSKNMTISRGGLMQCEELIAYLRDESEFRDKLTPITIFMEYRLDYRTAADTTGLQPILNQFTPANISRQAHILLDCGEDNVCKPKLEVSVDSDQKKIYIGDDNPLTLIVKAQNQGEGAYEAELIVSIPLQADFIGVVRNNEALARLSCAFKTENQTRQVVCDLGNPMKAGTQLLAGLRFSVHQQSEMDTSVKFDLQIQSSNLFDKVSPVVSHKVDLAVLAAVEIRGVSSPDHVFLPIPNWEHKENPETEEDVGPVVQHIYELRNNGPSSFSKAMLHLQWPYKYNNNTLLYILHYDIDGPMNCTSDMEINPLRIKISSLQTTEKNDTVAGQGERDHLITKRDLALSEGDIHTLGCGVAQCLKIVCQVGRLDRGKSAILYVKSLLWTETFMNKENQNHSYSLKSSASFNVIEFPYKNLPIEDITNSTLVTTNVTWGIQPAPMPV
T3 chain 2: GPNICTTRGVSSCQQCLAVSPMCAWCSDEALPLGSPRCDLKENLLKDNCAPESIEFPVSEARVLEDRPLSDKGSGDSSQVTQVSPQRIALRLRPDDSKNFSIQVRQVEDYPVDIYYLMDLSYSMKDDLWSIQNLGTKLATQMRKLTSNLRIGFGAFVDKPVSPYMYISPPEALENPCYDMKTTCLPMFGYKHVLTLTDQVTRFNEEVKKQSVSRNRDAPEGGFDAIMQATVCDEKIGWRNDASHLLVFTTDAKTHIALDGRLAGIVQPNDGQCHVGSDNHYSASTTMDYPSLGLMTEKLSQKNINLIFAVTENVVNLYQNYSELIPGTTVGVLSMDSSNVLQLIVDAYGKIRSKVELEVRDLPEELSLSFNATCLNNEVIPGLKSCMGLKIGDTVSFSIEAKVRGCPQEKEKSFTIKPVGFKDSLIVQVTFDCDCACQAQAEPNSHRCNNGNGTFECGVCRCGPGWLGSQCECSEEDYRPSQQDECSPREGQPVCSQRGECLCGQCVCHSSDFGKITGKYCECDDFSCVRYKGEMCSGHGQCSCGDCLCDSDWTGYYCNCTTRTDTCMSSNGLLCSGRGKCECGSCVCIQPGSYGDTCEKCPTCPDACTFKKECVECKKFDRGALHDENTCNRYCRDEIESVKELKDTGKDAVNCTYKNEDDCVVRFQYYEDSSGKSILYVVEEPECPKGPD
Kind of experiment: SPR.

Experiment [2] addresses T2, human integrin avb6. Briefly: ELISA.

B1: ADWA11 VH03/VK02 Fab (antibody, V domains shown)
VH: EVQLVESGGGLVQPGGSLRLSCAASGFNIKDYYMNWVRQAPGKGLEWVGWIDPDNGNTIYDPKFQGRFTISADNAKNSAYLQMNSLRAEDTAVYYCARRLLMDYWGQGTLVTVSS
VL: DIQMTQSPSSLSASVGDRVTITCRSTKSLLHFNGNTYLFWFQQKPGKAPKRLIYYMSNLASGVPSRFSGSGSGTDFTLTISSLQPEDFATYYCMQSLEYPFTFGQGTKVEIK
In the case of B1, the Kd with human integrin avb8 was determined as 0.37 nM.

B2: ADWA11 VH01/VK01 Fab (antibody, V domains shown)
VH: EVQLVESGGGLVQPGGSLRLSCAASGFNIKDYYMNWVRQAPGKGLEWVAWIDPDNGNTIYDPKFQGRFTISRDNAKNSLYLQMNSLRAEDTAVYYCARRLLMDYWGQGTLVTVSS
VL: DIQMTQSPSSLSASVGDRVTITCRSTKSLLHFNGNTYLFWYQQKPGKAPKRLIYYMSNLASGVPSRFSGSGSGTDFTLTISSLQPEDFATYYCMQSLEYPFTFGQGTKVEIK
In turn, B2 gave a Kd with human integrin avb8 of 6.86 nM.

B3: ADWA11 VH02/VK01 Fab (antibody, V domains shown)
VH: EVQLVESGGGLVQPGGSLRLSCAASGFNIKDYYMNWVRQAPGKGLEWVAWIDPDNGNTIYDPKFQGRFTISADNAKNSLYLQMNSLRAEDTAVYYCARRLLMDYWGQGTLVTVSS
VL: DIQMTQSPSSLSASVGDRVTITCRSTKSLLHFNGNTYLFWYQQKPGKAPKRLIYYMSNLASGVPSRFSGSGSGTDFTLTISSLQPEDFATYYCMQSLEYPFTFGQGTKVEIK
In the experiment with human integrin avb8, B3 registered a Kd of 1.89 nM.

B4: ADWA11 VH05-2/VK01 antibody (antibody, V domains shown)
VH: EVQLVESGGGLVQPGGSLRLSCAASGFNIKDYYMNWVRQAPGKGLEWVGWIDPDNGNTIYDPKFQGRFTISADTSKNSAYLQMNSLRAEDTAVYYCARRLLMDYWGQGTLVTVSS
VL: DIQMTQSPSSLSASVGDRVTITCRSTKSLLHFNGNTYLFWYQQKPGKAPKRLIYYMSNLASGVPSRFSGSGSGTDFTLTISSLQPEDFATYYCMQSLEYPFTFGQGTKVEIK
Regarding B4, the binding result with human integrin avb6 [1] and in the experiment with human integrin avb3 was “no binding” each time.

B5: ADWA11 VH03/VK01 Fab (antibody, V domains shown)
VH: EVQLVESGGGLVQPGGSLRLSCAASGFNIKDYYMNWVRQAPGKGLEWVGWIDPDNGNTIYDPKFQGRFTISADNAKNSAYLQMNSLRAEDTAVYYCARRLLMDYWGQGTLVTVSS
VL: DIQMTQSPSSLSASVGDRVTITCRSTKSLLHFNGNTYLFWYQQKPGKAPKRLIYYMSNLASGVPSRFSGSGSGTDFTLTISSLQPEDFATYYCMQSLEYPFTFGQGTKVEIK
B5 came in with a Kd with human integrin avb8 of less than 0.1 nM.

B6: Mouse hybridoma ADWA-11 IgG (antibody, V domains shown)
VH: EVQLQQSGAELVRPGAFVKLSCKASGFNIKDYYMNWVLQRPEQGLEWIGWIDPDNGNTIYDPKFQGKASITADTSSNTAYLQLSSLTSEDTAVYYCARRLLMDYWGQGTSVTVSS
VL: DIVMTQAAPSVPVTPGESVSISCRSTKSLLHFNGNTYLFWFLQRPGQSPQRLIYYMSNLASGVPDRFSGRGSGTDFTLRISRVEAEDVGVYYCMQSLEYPFTFGTGTKLEIK
Turning to B6, the binding result with human integrin avb3 and in the experiment with human integrin avb6 [2] was “no binding” throughout.

Source of the values: patent US20220289850 (published 2022).
